Experimental findings from article PMC6797804, “Histone H3K23-specific acetylation by MORF is coupled to H3K14 acylation” (Nature Communications, 2019) are described below.

Where a chain is given by its changes, count along the chain named. Ends that are not written are not given here. * marks the point of attachment. Crotonyl(E) = C/C=C/C(=O)*; Butyryl = CCCC(=O)*

The target in test [1] is T1, MORF DPF domain (residues 211–322) F287A (human, UniProt Q8WYB5 211-322, F287A).
T1 construct: MORF (KAT6B) double PHD finger (DPF), residues 211–322; also called MORFDPF F287A mutant; source: E. coli Rosetta2 (DE3) pLysS, purified (glutathione Sepharose 4B); 15N-labeled
T1 sequence (looked up): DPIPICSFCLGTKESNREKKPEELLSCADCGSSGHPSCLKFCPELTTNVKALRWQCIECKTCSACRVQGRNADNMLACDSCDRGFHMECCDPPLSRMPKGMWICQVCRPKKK
Briefly: NMR titration; 1H,15N HSQC at 298 K; H3 peptides (residues 1–19) titrated into 0.1–0.25 mM 15N-labeled WT or mutated MORFDPF in 1×PBS pH 6.5, 5 mM DTT, 8–10% D2O. The following applies: both partners purified.

Test [2] concerns the target T1, MORF DPF domain (residues 211–322) F287A. The experiment in a line: cell-based or functional assay.
Test [3] deals with T2, MORF DPF domain (residues 211–322), wild type (human, UniProt Q8WYB5 211-322).
T2 construct: MORF (KAT6B) double PHD finger (DPF), residues 211–322; The methods say the GST tag was either cleaved with thrombin or left on; also called WT MORFDPF; DPF domain of MORF; source: E. coli Rosetta2 (DE3) pLysS, purified (glutathione Sepharose 4B, size exclusion); unlabeled or 15N-labeled
T2 sequence (looked up): T1 sequence (looked up) with A77F
Briefly: other fluorescence titration; tryptophan fluorescence, 25 °C; 0.8–2 µM MORFDPF in PBS pH 6.5 with 5 mM DTT, increasing concentrations of H3 peptides (residues 1–19); excitation 295 nm. The following applies: both partners purified.

Test [4] concerns the target T3, MORF DPF domain (residues 211–322) F218A (human, UniProt Q8WYB5 211-322, F218A).
T3 construct: MORF (KAT6B) double PHD finger (DPF), residues 211–322; also called MORFDPF F218A mutant; source: E. coli Rosetta2 (DE3) pLysS, purified (glutathione Sepharose 4B, size exclusion)
T3 sequence (looked up): T1 sequence (looked up) with F8A, A77F
The test is described as above. The following applies: both partners purified.

B1: unmodified histone H3 peptide (residues 1–19 of H3) (peptide, UniProt P68431 2-20, looked up)
peptide: ARTKQTARKSTGGKAPRKQ
notes: histone H3 N-terminal tail, residues 1–19; source: synthetic peptide
As for B1, the “fold decrease in binding against the WT protein” value in test [1] was approximately 1000 fold.

B2: histone H3K14cr peptide (residues 1–19 of H3) (peptide, UniProt P68431 2-20, looked up)
peptide: ARTKQTARKSTGGK(Crotonyl(E))APRKQ
notes: as for B1
Usually Kd stands for a measure of binding affinity in units of concentration. A high value points to lower affinity. In the case of B2, the “HAT activity of the MORFN F287A complex against the wild-type MORFN complex on H3K14cr peptide (residues 1–29), liquid HAT assay” value in test [2] was 2 fold. This molecule also registered a Kd in test [3] of 700 nM. Besides, the binding result in test [4] is “binds”.

B3: histone H3K14bu peptide (residues 1–19 of H3) (peptide, UniProt P68431 2-20, looked up)
peptide: ARTKQTARKSTGGK(Butyryl)APRKQ
notes: as for B1
As to B3, the binding result in test [4] was “binds”.
